Results from the supplement of paper PMC9876800.

System: peptide library, one residue held at a place counted from the S/T acceptor
Assay: relative phosphorylation of the sub-library (ratio to the mean residue at this position); higher = residue favoured
Details: human
Method in brief: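 Purified recombinant kinases were reacted in 384-well plates with biotinylated degenerate peptide sub-libraries, each having one residue fixed at one position around a central Ser/Thr. The reaction mix contained 50 μM peptide plus 50 μM ATP spiked with γ-32P-ATP and ran for 90 min under kinase-specific conditions. Relative sub-library phosphorylation, taken from densitometry of phosphorimaged streptavidin membrane spots, is a ratio to the mean residue at that position.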

Chain of IRAK4, construct: aa104-end (Q9NWZ3 104-460, looked up): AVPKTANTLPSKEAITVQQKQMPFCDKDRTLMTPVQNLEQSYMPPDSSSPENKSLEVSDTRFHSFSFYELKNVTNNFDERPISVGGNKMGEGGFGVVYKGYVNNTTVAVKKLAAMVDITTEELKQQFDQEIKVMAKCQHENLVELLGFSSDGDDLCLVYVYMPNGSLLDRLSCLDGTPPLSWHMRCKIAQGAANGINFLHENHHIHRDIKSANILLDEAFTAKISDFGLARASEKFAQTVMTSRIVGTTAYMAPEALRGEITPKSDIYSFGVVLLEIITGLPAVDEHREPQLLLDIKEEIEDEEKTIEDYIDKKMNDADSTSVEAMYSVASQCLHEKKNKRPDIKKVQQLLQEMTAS
Chain of CSNK1A1, construct: Full length (P48729 whole entry, looked up): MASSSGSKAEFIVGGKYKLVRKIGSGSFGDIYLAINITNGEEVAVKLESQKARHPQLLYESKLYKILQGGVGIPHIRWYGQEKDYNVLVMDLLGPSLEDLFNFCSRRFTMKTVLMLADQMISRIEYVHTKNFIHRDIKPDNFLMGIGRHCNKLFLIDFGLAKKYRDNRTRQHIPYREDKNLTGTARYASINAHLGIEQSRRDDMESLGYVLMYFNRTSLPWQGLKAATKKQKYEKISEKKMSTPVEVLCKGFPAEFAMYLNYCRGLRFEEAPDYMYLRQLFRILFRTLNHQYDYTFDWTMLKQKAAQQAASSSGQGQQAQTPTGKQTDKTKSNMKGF
Chain of TAOK2, construct: aa1-350 (Q9UL54 1-350, looked up): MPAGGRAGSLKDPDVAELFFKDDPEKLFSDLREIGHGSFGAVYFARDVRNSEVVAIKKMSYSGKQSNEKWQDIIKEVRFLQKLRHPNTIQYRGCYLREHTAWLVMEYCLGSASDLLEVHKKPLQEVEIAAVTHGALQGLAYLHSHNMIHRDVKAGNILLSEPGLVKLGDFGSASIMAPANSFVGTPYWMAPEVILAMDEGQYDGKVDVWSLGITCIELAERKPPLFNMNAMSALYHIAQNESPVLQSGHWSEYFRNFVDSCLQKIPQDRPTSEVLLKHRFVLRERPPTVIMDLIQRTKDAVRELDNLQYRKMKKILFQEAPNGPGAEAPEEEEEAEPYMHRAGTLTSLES
Chain of MAP4K4, construct: aa1-328 (O95819 1-328, looked up): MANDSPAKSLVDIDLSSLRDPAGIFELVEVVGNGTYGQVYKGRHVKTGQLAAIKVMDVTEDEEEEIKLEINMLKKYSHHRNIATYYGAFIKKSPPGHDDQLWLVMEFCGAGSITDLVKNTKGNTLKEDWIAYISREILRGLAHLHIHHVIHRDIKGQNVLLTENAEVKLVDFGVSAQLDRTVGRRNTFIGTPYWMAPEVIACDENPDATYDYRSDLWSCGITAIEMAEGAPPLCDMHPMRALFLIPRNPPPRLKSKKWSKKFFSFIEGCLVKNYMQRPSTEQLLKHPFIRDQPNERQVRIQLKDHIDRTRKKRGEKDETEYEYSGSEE

TAOK2, construct: aa1-350 (from UniProt Q9UL54)
relative phosphorylation
Details | at +1 | at +2 | at +3 | at +4 | at -1 | at -2 | at -3 | at -4 | at -5
A fixed | 0.607 | 0.791 | 0.808 | 0.75 | 0.832 | 0.94 | 0.901 | 0.992 | 1.03
D fixed | 0.505 | 0.606 | 0.532 | 0.619 | 0.726 | 0.706 | 0.741 | 0.931 | 1.01
E fixed | 0.496 | 0.483 | 0.501 | 0.593 | 0.566 | 0.621 | 0.725 | 0.92 | 0.888
F fixed | 1.23 | 0.651 | 0.845 | 0.887 | 0.938 | 1.4 | 0.806 | 0.907 | 0.896
G fixed | 0.606 | 0.697 | 0.953 | 0.937 | 1.45 | 1.13 | 1.34 | 1.14 | 1.13
H fixed | 0.855 | 0.993 | 0.924 | 1.04 | 1.28 | 1.01 | 1.06 | 1.08 | 1.06
I fixed | 1.47 | 0.723 | 0.761 | 0.763 | 0.561 | 0.703 | 0.642 | 0.746 | 0.73
K fixed | 0.753 | 2.65 | 2 | 1.72 | 1.11 | 0.981 | 2.14 | 1.46 | 1.45
L fixed | 1.49 | 0.644 | 0.807 | 0.778 | 1.1 | 0.709 | 0.672 | 0.781 | 0.767
M fixed | 1.49 | 0.734 | 0.735 | 0.764 | 1.26 | 0.978 | 0.828 | 0.857 | 0.827
N fixed | 0.64 | 1.24 | 0.876 | 0.845 | 1.16 | 0.972 | 0.944 | 1.1 | 1.05
P fixed | 0.589 | 0.76 | 0.906 | 0.834 | 0.667 | 0.876 | 0.777 | 0.965 | 0.969
Q fixed | 0.727 | 0.884 | 0.838 | 0.949 | 0.851 | 0.896 | 1 | 1.01 | 0.977
R fixed | 0.778 | 2.81 | 2.84 | 2.19 | 1.27 | 1.1 | 1.59 | 1.28 | 1.38
V fixed | 1.09 | 0.812 | 0.753 | 0.738 | 0.583 | 0.731 | 0.672 | 0.818 | 0.889
W fixed | 2.32 | 0.69 | 1.04 | 1.35 | 1.1 | 1.08 | 1.02 | 1 | 0.986
Y fixed | 1.35 | 0.835 | 0.873 | 1.24 | 1.54 | 2.16 | 1.13 | 1.01 | 0.96
pThr fixed | 0.639 | 0.557 | 0.614 | 0.55 | 0.605 | 0.742 | 0.817 | 0.964 | 1
pTyr fixed | 0.577 | 0.54 | 0.626 | 0.609 | 1.27 | 0.822 | 0.909 | 1.03 | 1.1

IRAK4, construct: aa104-end (from UniProt Q9NWZ3)
relative phosphorylation
Details | at +1 | at +2 | at +3 | at +4 | at -1 | at -2 | at -3 | at -4 | at -5
A fixed | 1 | 0.837 | 0.672 | 0.783 | 0.78 | 1.05 | 0.954 | 1.13 | 1.15
D fixed | 0.163 | 0.147 | 0.24 | 0.423 | 0.303 | 0.404 | 0.555 | 0.603 | 0.602
E fixed | 0.314 | 0.164 | 0.217 | 0.405 | 0.247 | 0.405 | 0.507 | 0.619 | 0.554
F fixed | 1.05 | 1.27 | 1.4 | 0.77 | 0.886 | 0.903 | 0.885 | 0.97 | 0.895
G fixed | 1.13 | 0.45 | 0.698 | 0.935 | 0.636 | 1.31 | 1.36 | 1.22 | 1.29
H fixed | 1.07 | 1.13 | 1.49 | 1.26 | 1.28 | 1.06 | 1.05 | 1.01 | 1.15
I fixed | 0.92 | 1.42 | 1.33 | 0.897 | 0.774 | 0.842 | 0.755 | 0.742 | 0.89
K fixed | 1.94 | 1.43 | 1.56 | 1.89 | 2.3 | 1.23 | 1.53 | 1.46 | 1.52
L fixed | 0.83 | 1.05 | 1.24 | 0.85 | 0.877 | 1.23 | 0.935 | 0.852 | 0.774
M fixed | 1.2 | 1.16 | 1.15 | 1.01 | 1 | 1.57 | 1.03 | 0.907 | 0.837
N fixed | 0.705 | 0.669 | 0.651 | 1.04 | 1 | 1.14 | 1.1 | 1.14 | 0.997
P fixed | 0.139 | 0.406 | 0.252 | 0.961 | 0.666 | 1.04 | 1.11 | 1.12 | 1.22
Q fixed | 1.34 | 0.862 | 0.919 | 0.983 | 0.973 | 0.979 | 0.964 | 0.864 | 0.866
R fixed | 2.58 | 1.99 | 1.76 | 1.83 | 2.31 | 1.34 | 1.65 | 1.5 | 1.59
V fixed | 1.08 | 1.47 | 1.18 | 0.778 | 0.942 | 0.811 | 0.775 | 0.891 | 0.812
W fixed | 0.778 | 1 | 1.11 | 1.25 | 0.755 | 0.814 | 0.968 | 1.01 | 0.881
Y fixed | 0.755 | 1.53 | 1.12 | 0.942 | 1.26 | 0.878 | 0.864 | 0.957 | 0.966
pThr fixed | 0.276 | 0.274 | 0.341 | 0.33 | 0.352 | 0.678 | 0.866 | 0.752 | 0.87
pTyr fixed | 0.203 | 0.177 | 0.441 | 0.323 | 0.276 | 0.545 | 0.65 | 0.539 | 0.763

CSNK1A1, construct: Full length (from UniProt P48729)
relative phosphorylation
Details | at +1 | at +2 | at +3 | at +4 | at -1 | at -2 | at -3 | at -4 | at -5
A fixed | 0.898 | 1.02 | 1 | 1.11 | 1.24 | 2.02 | 0.811 | 1.17 | 1.13
D fixed | 0.691 | 0.553 | 0.8 | 1.09 | 0.696 | 0.92 | 3.33 | 1.38 | 1.2
E fixed | 1.21 | 0.343 | 0.994 | 0.958 | 1.01 | 1.44 | 3.21 | 1.74 | 1.17
F fixed | 0.725 | 1.5 | 1.2 | 1.18 | 0.665 | 0.688 | 0.558 | 0.898 | 1.06
G fixed | 0.869 | 0.952 | 1.76 | 1.1 | 1.08 | 1.04 | 0.749 | 1.11 | 1
H fixed | 1.17 | 1.65 | 1.64 | 1.09 | 1.17 | 0.881 | 0.579 | 0.933 | 1.06
I fixed | 1.59 | 1.27 | 0.695 | 0.869 | 0.671 | 0.81 | 0.625 | 0.754 | 0.829
K fixed | 0.509 | 0.699 | 0.6 | 0.782 | 1.1 | 0.705 | 0.633 | 0.734 | 0.956
L fixed | 1.12 | 0.726 | 0.754 | 0.865 | 0.76 | 0.837 | 0.581 | 0.677 | 0.969
M fixed | 1.1 | 0.892 | 1.01 | 0.946 | 1.04 | 0.897 | 0.562 | 0.744 | 0.901
N fixed | 1.15 | 0.742 | 0.776 | 0.737 | 1.24 | 1.09 | 0.831 | 0.915 | 0.824
P fixed | 0.639 | 1.09 | 0.847 | 0.989 | 1.14 | 1.38 | 0.826 | 1.09 | 1.43
Q fixed | 1.22 | 0.626 | 0.727 | 0.848 | 1.61 | 1.08 | 0.75 | 0.706 | 0.717
R fixed | 0.59 | 0.632 | 0.552 | 0.628 | 1.04 | 0.824 | 0.746 | 0.74 | 0.768
V fixed | 2.02 | 0.985 | 0.711 | 0.923 | 0.787 | 0.986 | 0.595 | 0.692 | 0.78
W fixed | 0.738 | 1.59 | 1.38 | 1.46 | 0.898 | 0.635 | 0.628 | 1.67 | 1.16
Y fixed | 0.771 | 1.73 | 1.55 | 1.44 | 0.839 | 0.763 | 0.987 | 1.04 | 1.04
pThr fixed | 3.36 | 0.673 | 1.04 | 3.07 | 1.48 | 5.81 | 100 | 10.8 | 2.93
pTyr fixed | 1.32 | 6.1 | 4.04 | 2.48 | 1.76 | 3.06 | 5.64 | 10.7 | 3.72

MAP4K4, construct: aa1-328 (from UniProt O95819)
relative phosphorylation
Details | at +1 | at +2 | at +3 | at +4 | at -1 | at -2 | at -3 | at -4 | at -5
A fixed | 0.704 | 0.925 | 0.833 | 1.06 | 1.11 | 1.09 | 1.06 | 1.03 | 1.31
D fixed | 0.182 | 0.658 | 0.379 | 0.734 | 0.805 | 0.726 | 0.861 | 0.82 | 0.983
E fixed | 0.181 | 0.553 | 0.325 | 0.487 | 0.423 | 0.544 | 0.672 | 0.913 | 0.714
F fixed | 0.947 | 0.616 | 0.674 | 0.705 | 0.809 | 1.41 | 0.966 | 0.943 | 0.879
G fixed | 0.648 | 1 | 0.812 | 1.2 | 1.65 | 1.07 | 1.23 | 1.08 | 1.27
H fixed | 0.927 | 1.13 | 1.03 | 1.11 | 1.35 | 1.21 | 1.3 | 1.14 | 1.11
I fixed | 1.72 | 0.567 | 0.575 | 0.689 | 0.42 | 0.804 | 0.7 | 0.744 | 0.807
K fixed | 0.896 | 2.26 | 2.37 | 2.03 | 1.27 | 0.792 | 1.16 | 1.1 | 1.18
L fixed | 2.32 | 0.728 | 0.734 | 0.785 | 0.941 | 0.776 | 0.809 | 0.808 | 0.752
M fixed | 2.15 | 0.827 | 0.681 | 0.766 | 1.15 | 0.907 | 0.923 | 1.04 | 0.841
N fixed | 0.688 | 0.905 | 0.823 | 0.956 | 1.17 | 0.952 | 1.09 | 0.929 | 0.843
P fixed | 0.32 | 1.02 | 0.976 | 1.18 | 0.742 | 0.749 | 0.982 | 1 | 1.22
Q fixed | 0.645 | 1.06 | 0.957 | 1.06 | 0.976 | 0.821 | 0.979 | 0.989 | 0.936
R fixed | 0.851 | 2.49 | 3.56 | 1.97 | 1.41 | 0.934 | 1.18 | 1.16 | 1.13
V fixed | 1.2 | 0.694 | 0.653 | 0.775 | 0.587 | 0.852 | 0.583 | 0.894 | 0.909
W fixed | 1.6 | 0.756 | 0.871 | 0.823 | 0.892 | 1.42 | 1.27 | 1.28 | 1.09
Y fixed | 1.02 | 0.806 | 0.746 | 0.669 | 1.28 | 1.94 | 1.22 | 1.13 | 1.04
pThr fixed | 0.465 | 0.462 | 0.606 | 0.607 | 0.373 | 0.608 | 0.839 | 0.961 | 0.998
pTyr fixed | 0.306 | 0.401 | 0.444 | 0.434 | 0.717 | 0.685 | 1.01 | 0.868 | 0.837
